{"source": "paper PMC3979677", "about": "“Low-Resolution Structure of the Full-Length Barley (Hordeum vulgare) SGT1 Protein in Solution, Obtained Using Small-Angle X-Ray Scattering” (PLoS ONE, 2014)", "key": {"[1]": {"molecular_target": "the molecule itself", "assay": "SAXS; full-length SGT1 in solution, 3.46, 3.41 and 2.71 mg/mL in 50 mM Tris/HCl pH 7.5, 5 mM DTT with 0, 0.5 or 1 M NaCl, 10°C; SVD and MCR-ALS analysis; dimer to monomers"}, "[2]": {"molecular_target": "the molecule itself", "assay": "SAXS; TPR domain in solution, 2 mg/ml in 50 mM Tris HCl pH 7.5, 5 mM DTT with 0, 100, 200, 400, 600 or 800 mM KCl, 15°C; SVD and MCR-ALS analysis; dimer to monomers"}}, "data": [{"protein": "full-length barley (Hordeum vulgare) SGT1 protein (natural protein, Hordeum vulgare (barley), UniProt Q8W516 1-373, looked up, SGT1 (suppressor of the G2 allele of skp1), Hordeum vulgare, full length cDNA; 373 amino acids in total; Cloned in pET151-D TOPO; His-TEV site cleaved with His-TEV protease (Ser219Val); also called barley SGT1; HvSgt1; source: E. coli BL21 DE3 Codon Plus, purified (HisTrap Ni-NTA, Superdex 200, TEV cleavage, HisTrap, MonoQ)) MAAAAASDLESKAKEAFVDDDFELAAELYTQAIEAGPATAELYADRAQAHIKLGSYTEAVADANKAIELDPSMHKAYLRKGSACIKLEEYQTAKAALEVGSSYASGDSRFTRLMKECDDRIAEEASQAPVKNAAAAVAPATSSGATTVVTEAEDQDGENMENAQPTVEVPSKPKYRHDYYNTPTEVVLTIFAKGVPADSVVVDFGEQMLSVSIELPGEEPYHFQPRLFSKIVPDKCKYTVLSTKVEIRLAKAEPVTWTSLDYTGKPKAPQKINVPAESAQRPSYPSSKSKKDWDKLEAEVKKQEKDEKLDGDAALNKFFREIYSDADEDMRRAMMKSFVESNGTVLSTNWKDVGKKTVEGSPPDGMELKKWEY", "values": [{"measurement": "stoichiometry N", "setting": "[1]", "value": 2}]}, {"protein": "TPR domain from Hordeum vulgare SGT1 (6-124) (domain or fragment, Hordeum vulgare (barley), UniProt Q8W516 6-124, looked up, SGT1, Hordeum vulgare, tetratricopeptide repeats (TPR) domain, residues 6-124; Cloned in pETM11 (NcoI/EcoRI) from pET151-HvSgt1; his-tag cleaved with TEV protease; source: E. coli BL21(DE3) Codon Plus, purified (HisTrap, TEV cleavage, HisTrap, Superdex 200)) ASDLESKAKEAFVDDDFELAAELYTQAIEAGPATAELYADRAQAHIKLGSYTEAVADANKAIELDPSMHKAYLRKGSACIKLEEYQTAKAALEVGSSYASGDSRFTRLMKECDDRIAEE", "values": [{"measurement": "stoichiometry N", "setting": "[2]", "value": 2}]}]}
